The text below walks through data of patent publication US20040002144.

The target in series [1] is T1, ovalbumin, P01012.
T1 chain: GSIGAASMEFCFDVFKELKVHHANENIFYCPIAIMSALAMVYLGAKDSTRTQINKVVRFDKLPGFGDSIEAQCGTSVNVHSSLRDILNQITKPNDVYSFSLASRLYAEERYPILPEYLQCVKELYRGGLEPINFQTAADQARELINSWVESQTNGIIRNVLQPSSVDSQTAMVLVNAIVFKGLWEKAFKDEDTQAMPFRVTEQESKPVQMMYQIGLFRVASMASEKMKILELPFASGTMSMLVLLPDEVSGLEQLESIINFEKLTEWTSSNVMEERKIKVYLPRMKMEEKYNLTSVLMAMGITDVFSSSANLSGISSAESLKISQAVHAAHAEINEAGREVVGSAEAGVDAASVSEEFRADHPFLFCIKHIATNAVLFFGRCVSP

For series [2], the target named is insulin A chain wherein cysteine residue had been oxidized (Sigma).
insulin A chain wherein cysteine residue had been oxidized (Sigma), sequence (chain, as listed by the source): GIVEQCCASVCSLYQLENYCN

“Also recorded” adds a separate entry of the source.

B1: del 1-2 mutant MTG (residue Nos. 1 and 2 removed) (protein)
chain: DDRVTPPAEPLDRMPDPYRPSYGRAETVVNNYIRKWQQVYSHRDGRKQQMTEEQREWLSYGCVGVTWVNSGQYPTNRLAFASFDEDRFKNELKNGRPRSGETRAEFEGRVAKESFDEEKGFQRAREVASVMNRALENAHDESAYLDNLKKELANGNDALRNEDARSPFYSALRNTPSFKERNGGNHDPSRMKAVIYSKHFWSGQDRSSSADKRKYGDPDAFRPAPGTGLVDMSRDRNIPRSPTSPGEGFVNFDYGWFGAQTEADADKTVWTHGNHYHAPNGSLGAMHVYESKFRNWSEGYSDFDRGAYVITFIPKSWNTAPDKVKQGWP
For the protein B1, the “reactivity to the ovalbumin glutamine residue giving signal "a" (1H-15N HSQC peak intensity vs. reaction time)” value in series [1] was “the reactivity of each of del 1-2 and del 1-3 was improved as compared with that of the wild type”.

B2: del 1-3 mutant MTG (residue Nos. 1 to 3 removed) (protein)
chain: DRVTPPAEPLDRMPDPYRPSYGRAETVVNNYIRKWQQVYSHRDGRKQQMTEEQREWLSYGCVGVTWVNSGQYPTNRLAFASFDEDRFKNELKNGRPRSGETRAEFEGRVAKESFDEEKGFQRAREVASVMNRALENAHDESAYLDNLKKELANGNDALRNEDARSPFYSALRNTPSFKERNGGNHDPSRMKAVIYSKHFWSGQDRSSSADKRKYGDPDAFRPAPGTGLVDMSRDRNIPRSPTSPGEGFVNFDYGWFGAQTEADADKTVWTHGNHYHAPNGSLGAMHVYESKFRNWSEGYSDFDRGAYVITFIPKSWNTAPDKVKQGWP
Consider B2, for which the “reactivity to the ovalbumin glutamine residue giving signal "a" (1H-15N HSQC peak intensity vs. reaction time)” value in series [1] was “the reactivity of each of del 1-2 and del 1-3 was improved as compared with that of the wild type; also recorded: the reactivity of del 1-3 was even much higher than that of Ser type or S2R”.

B3: Sg4 mutant MTG (residue Nos. 241 to 252 replaced with 3 glycine residues) (protein)
chain: DSDDRVTPPAEPLDRMPDPYRPSYGRAETVVNNYIRKWQQVYSHRDGRKQQMTEEQREWLSYGCVGVTWVNSGQYPTNRLAFASFDEDRFKNELKNGRPRSGETRAEFEGRVAKESFDEEKGFQRAREVASVMNRALENAHDESAYLDNLKKELANGNDALRNEDARSPFYSALRNTPSFKERNGGNHDPSRMKAVIYSKHFWSGQDRSSSADKRKYGDPDAFRPAPGTGLVDMSRDRNIGGGNFDYGWFGAQTEADADKTVWTHGNHYHAPNGSLGAMHVYESKFRNWSEGYSDFDRGAYVITFIPKSWNTAPDKVKQGWP
With B3, the “groups of 1H-15N HSQC signals of 15N-labeled ovalbumin glutamine residues after 6 hours” value (from here on “groups”) in series [1] was “only 3 groups and 2 groups of the signals were found when Sg4 and Sg7 were used, respectively”.

B4: Sg7 mutant MTG (residue Nos. 278 to 287 replaced with 3 glycine residues) (protein)
chain: DSDDRVTPPAEPLDRMPDPYRPSYGRAETVVNNYIRKWQQVYSHRDGRKQQMTEEQREWLSYGCVGVTWVNSGQYPTNRLAFASFDEDRFKNELKNGRPRSGETRAEFEGRVAKESFDEEKGFQRAREVASVMNRALENAHDESAYLDNLKKELANGNDALRNEDARSPFYSALRNTPSFKERNGGNHDPSRMKAVIYSKHFWSGQDRSSSADKRKYGDPDAFRPAPGTGLVDMSRDRNIPRSPTSPGEGFVNFDYGWFGAQTEADADKTVWTHGNHGGGMHVYESKFRNWSEGYSDFDRGAYVITFIPKSWNTAPDKVKQGWP
Take B4: the “groups” value in series [1] is “only 3 groups and 2 groups of the signals were found when Sg4 and Sg7 were used, respectively”.

B5: S2Y mutant MTG (Ser2 replaced with Tyr, in Met type MTG) (protein)
chain: MDYDDRVTPPAEPLDRMPDPYRPSYGRAETVVNNYIRKWQQVYSHRDGRKQQMTEEQREWLSYGCVGVTWVNSGQYPTNRLAFASFDEDRFKNELKNGRPRSGETRAEFEGRVAKESFDEEKGFQRAREVASVMNRALENAHDESAYLDNLKKELANGNDALRNEDARSPFYSALRNTPSFKERNGGNHDPSRMKAVIYSKHFWSGQDRSSSADKRKYGDPDAFRPAPGTGLVDMSRDRNIPRSPTSPGEGFVNFDYGWFGAQTEADADKTVWTHGNHYHAPNGSLGAMHVYESKFRNWSEGYSDFDRGAYVITFIPKSWNTAPDKVKQGWP
Regarding B5, the “15N-labeling rate of the ovalbumin glutamine residue giving signal "a"” value in series [1] is given as “the order of the 15N-labeling rate was S2Y<S2D<wild type<S2R”.

B6: S2D mutant MTG (Ser2 replaced with Asp, in Met type MTG) (protein)
chain: MDDDDRVTPPAEPLDRMPDPYRPSYGRAETVVNNYIRKWQQVYSHRDGRKQQMTEEQREWLSYGCVGVTWVNSGQYPTNRLAFASFDEDRFKNELKNGRPRSGETRAEFEGRVAKESFDEEKGFQRAREVASVMNRALENAHDESAYLDNLKKELANGNDALRNEDARSPFYSALRNTPSFKERNGGNHDPSRMKAVIYSKHFWSGQDRSSSADKRKYGDPDAFRPAPGTGLVDMSRDRNIPRSPTSPGEGFVNFDYGWFGAQTEADADKTVWTHGNHYHAPNGSLGAMHVYESKFRNWSEGYSDFDRGAYVITFIPKSWNTAPDKVKQGWP
Turning to B6, the “15N-labeling rate of the ovalbumin glutamine residue giving signal "a"” value in series [1] is on record as “the order of the 15N-labeling rate was S2Y<S2D<wild type<S2R”.

B7: S2R mutant MTG (Ser2 replaced with Arg, in Met type MTG) (protein)
chain: MDRDDRVTPPAEPLDRMPDPYRPSYGRAETVVNNYIRKWQQVYSHRDGRKQQMTEEQREWLSYGCVGVTWVNSGQYPTNRLAFASFDEDRFKNELKNGRPRSGETRAEFEGRVAKESFDEEKGFQRAREVASVMNRALENAHDESAYLDNLKKELANGNDALRNEDARSPFYSALRNTPSFKERNGGNHDPSRMKAVIYSKHFWSGQDRSSSADKRKYGDPDAFRPAPGTGLVDMSRDRNIPRSPTSPGEGFVNFDYGWFGAQTEADADKTVWTHGNHYHAPNGSLGAMHVYESKFRNWSEGYSDFDRGAYVITFIPKSWNTAPDKVKQGWP
Take B7: in series [1], the “15N-labeling rate of the ovalbumin glutamine residue giving signal "a"” value is given as “the order of the 15N-labeling rate was S2Y<S2D<wild type<S2R”.

B8: Ser-type MTG (mutant in which Asp1 has been removed, starts with Ser2) (protein)
chain: SDDRVTPPAEPLDRMPDPYRPSYGRAETVVNNYIRKWQQVYSHRDGRKQQMTEEQREWLSYGCVGVTWVNSGQYPTNRLAFASFDEDRFKNELKNGRPRSGETRAEFEGRVAKESFDEEKGFQRAREVASVMNRALENAHDESAYLDNLKKELANGNDALRNEDARSPFYSALRNTPSFKERNGGNHDPSRMKAVIYSKHFWSGQDRSSSADKRKYGDPDAFRPAPGTGLVDMSRDRNIPRSPTSPGEGFVNFDYGWFGAQTEADADKTVWTHGNHYHAPNGSLGAMHVYESKFRNWSEGYSDFDRGAYVITFIPKSWNTAPDKVKQGWP
As for B8, the “15N-labeling rate of the ovalbumin glutamine residue giving signal "a" (1H-15N HSQC peak intensity vs. reaction time)” value in series [1] is “more rapidly 15N-labeled when it was reacted with the Ser-type rather than when reacted with the wild type”.

B9: transglutaminase derived from Streptoverticillium mobaraense (MTG), wild type (protein)
chain: DSDDRVTPPAEPLDRMPDPYRPSYGRAETVVNNYIRKWQQVYSHRDGRKQQMTEEQREWLSYGCVGVTWVNSGQYPTNRLAFASFDEDRFKNELKNGRPRSGETRAEFEGRVAKESFDEEKGFQRAREVASVMNRALENAHDESAYLDNLKKELANGNDALRNEDARSPFYSALRNTPSFKERNGGNHDPSRMKAVIYSKHFWSGQDRSSSADKRKYGDPDAFRPAPGTGLVDMSRDRNIPRSPTSPGEGFVNFDYGWFGAQTEADADKTVWTHGNHYHAPNGSLGAMHVYESKFRNWSEGYSDFDRGAYVITFIPKSWNTAPDKVKQGWP
Turning to B9, the “15N-labeled residue identified by mass spectrometry” value in series [2] is listed as “in the two glutamine residues in insulin A chain, the 15th glutamine residue was the substrate of MTG”. In addition, in series [1], the “15N-labeling rate of the ovalbumin glutamine residue giving signal "a"” value is “the order of the 15N-labeling rate was S2Y<S2D<wild type<S2R” and the “groups” value is recorded as 6 groups of the signals were found when the wild type was used.
